These results are taken from paper PMC11784016.

Holding throughout (test): co-IP; 293T cells co-transfected; 400 ug of cell lysate on anti-HA magnetic beads with RNaseA (50 ug/mL), 2 h at 4 C; co-IP buffer 50 mM Tris-Cl pH 7.4, 1% Nonidet-P40, 10% glycerol, 150 mM NaCl; immunoblot with anti-HA and anti-V5 or anti-Flag; band intensities normalised to the immunoprecipitated protein, full-length protein set to 100%
Background: A western blot detects proteins with antibodies after separation by electrophoresis.

For assay [1], the target named is APOBEC3G with C-terminal triple HA tag (pcDNA3.1-APOBEC3G-HA) (human) (UniProt Q9HC16).
For assay [2], the target named is APOBEC3G N-terminal domain, HA-tagged (pcDNA3.1 A3G NTD-HA) (human).
The target in assay [3] is APOBEC3F-HA (pcDNA3.1 A3F-HA) (human) (UniProt Q8IUX4).
Assay [4] has as its target APOBEC3F N-terminal domain, HA-tagged (pcDNA3.1 A3F NTD-HA) (human).

Sequence of APOBEC3G N-terminal domain, HA-tagged (pcDNA3.1 A3G NTD-HA) (human) (Q9HC16 whole entry, the tested form may be a part): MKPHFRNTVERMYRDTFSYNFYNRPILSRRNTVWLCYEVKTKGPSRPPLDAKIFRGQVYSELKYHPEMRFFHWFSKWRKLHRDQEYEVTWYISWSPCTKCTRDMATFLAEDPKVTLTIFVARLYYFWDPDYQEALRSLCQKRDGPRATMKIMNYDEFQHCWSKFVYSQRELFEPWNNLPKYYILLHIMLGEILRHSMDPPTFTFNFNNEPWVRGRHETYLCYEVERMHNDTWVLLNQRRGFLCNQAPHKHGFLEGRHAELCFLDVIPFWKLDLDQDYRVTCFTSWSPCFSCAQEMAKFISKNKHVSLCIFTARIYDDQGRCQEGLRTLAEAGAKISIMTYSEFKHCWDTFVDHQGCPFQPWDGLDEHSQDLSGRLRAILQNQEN
Sequence of APOBEC3F N-terminal domain, HA-tagged (pcDNA3.1 A3F NTD-HA) (human) (Q8IUX4 whole entry, the tested form may be a part): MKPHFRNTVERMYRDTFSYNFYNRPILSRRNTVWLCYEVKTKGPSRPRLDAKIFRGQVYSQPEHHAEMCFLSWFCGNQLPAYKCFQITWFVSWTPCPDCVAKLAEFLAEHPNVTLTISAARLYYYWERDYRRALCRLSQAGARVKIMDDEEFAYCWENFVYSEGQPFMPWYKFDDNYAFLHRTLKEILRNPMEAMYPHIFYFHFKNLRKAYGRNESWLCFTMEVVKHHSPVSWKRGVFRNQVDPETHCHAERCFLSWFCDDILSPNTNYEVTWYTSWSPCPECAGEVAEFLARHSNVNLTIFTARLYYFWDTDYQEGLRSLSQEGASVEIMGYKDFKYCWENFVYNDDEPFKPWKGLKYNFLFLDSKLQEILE

As to “APOBEC3F C-terminal domain, Flag-tagged (pcDNA3.1 A3F CTD-Flag) (domain or fragment)”, the fold less immunoprecipitated than full-length A3F and A3F NTD in assay [1] worked out at 17 fold. Regarding “APOBEC3F N-terminal domain, Flag-tagged (pcDNA3.1 A3F NTD-Flag) (domain or fragment)”, in assay [2], the fold more immunoprecipitated than full-length A3F worked out at 7 fold. “APOBEC3G C-terminal domain, Flag-tagged (A3G CTD-Flag) (domain or fragment)” yielded a fold by which full-length A3G in the co-IP exceeded this construct in assay [3] of 42 fold. In assay [3], “APOBEC3G N-terminal domain, Flag-tagged (pcDNA3.1 A3G NTD-Flag) (domain or fragment)” came in with a fold by which full-length A3G in the co-IP exceeded this construct of 6 fold. The fold less in the co-IP than the full-length protein in assay [4] was 1000 fold.
